Experimental data taken from patent US20050064507A1, “Determining kinase specificity” (priority 2003, published 2005).

Molecular target: T1, PKC-epsilon (Homo sapiens, UniProt Q02156)
T1 construct: purchased Calbiochem
T1 sequence (Q02156 1-737): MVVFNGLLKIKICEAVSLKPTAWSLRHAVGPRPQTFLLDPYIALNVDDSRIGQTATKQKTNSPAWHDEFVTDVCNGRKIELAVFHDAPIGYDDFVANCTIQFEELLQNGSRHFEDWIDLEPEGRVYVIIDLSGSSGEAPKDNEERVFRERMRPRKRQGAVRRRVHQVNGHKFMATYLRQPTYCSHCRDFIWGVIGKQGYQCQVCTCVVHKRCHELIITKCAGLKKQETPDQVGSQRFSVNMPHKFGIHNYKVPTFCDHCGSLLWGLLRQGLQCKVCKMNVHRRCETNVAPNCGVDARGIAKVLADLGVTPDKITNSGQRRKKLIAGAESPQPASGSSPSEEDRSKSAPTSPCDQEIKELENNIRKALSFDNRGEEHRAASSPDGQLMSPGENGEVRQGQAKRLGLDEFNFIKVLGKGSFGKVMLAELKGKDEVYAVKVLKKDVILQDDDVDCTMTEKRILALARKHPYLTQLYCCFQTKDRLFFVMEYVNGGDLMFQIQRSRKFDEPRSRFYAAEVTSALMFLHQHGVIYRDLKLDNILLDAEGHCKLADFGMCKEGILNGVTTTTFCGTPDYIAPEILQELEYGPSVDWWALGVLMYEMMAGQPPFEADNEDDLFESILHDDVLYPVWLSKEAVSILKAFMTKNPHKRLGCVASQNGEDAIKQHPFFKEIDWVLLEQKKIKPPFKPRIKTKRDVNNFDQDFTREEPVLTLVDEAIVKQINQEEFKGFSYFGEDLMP
Assay: In vitro kinase assay: peptide phosphorylation by PKC-epsilon
Type: biochemical
Conditions: for phosphorylation by PKC epsilon: peptide concentration 1 uM; for PKC-epsilon phosphorylation: normalized to best substrate
Procedure: Catalytically active preparations of the kinases of interest were either purchased or prepared. Purchased and tested active kinase preparations including the following: PKC-alpha, PKC-delta, PKC-epsilon, PKC-zeta, PKC-mu, PKA, PKG from Calbiochem, ROK alpha/ROCK-II, active from Upstate Biotechnology, and AKT1 from Panvera.
The conditions of the kinase assay and the amount of active kinase used varied with the kinase and with the accuracy needed. For a typical experiment, 5-20 ng of kinase was used per well and each peptide pool was assayed in duplicate wells. Note that the absolute amount of kinase used was not usually a critical parameter, because the desired information related to specificity of the kinase not its absolute activity, and robustness of the assay depends on comparisons of the same amount of kinase on different peptides. The combination of kinase concentration and assay duration was modified to assure that the stoichiometry of peptide phosphorylation never exceeded 5%. The choice of kinase buffer depended on the kinase being analyzed. For studies of PKC, 100 mM HEPES, 0.05% Triton-X100, 1 mM CaCl2, 20 mM MgCl2, 0.2 mg/ml phosphatidyl serine (Avanti Polar Lipids), PMA 100 ng/ml was typically used. The lipid stock was prepared by transferring 3 mg phosphatidyl serine into iced mixture of 450 μl water plus 50 μl of 10% Triton-X100, sonicating 10 times on ice for 1 sec each.
The kinase reaction mixture was assembled by sequential addition to a tube held on ice of: 5 μl peptide (100 μM for final concentration of 10 μM), 15 μl of kinase (typically 5 ng/well, in appropriate kinase buffer), 30 μl of ATP (1 uCi/well of ^32P-gamma ATP in a stock of 167 μM cold ATP in the kinase buffer; for final concentration for 100 μM ATP). The mixture was rapidly warmed to desired reaction temperature (30° C. for PKC) and incubated for the desired duration (usually 10 minutes). The kinase assay was terminated by transfer to 4° C. water batch, and rapid addition of an equal volume (50 μl) of stop solution [0.1M ATP+0.1M EDTA in water, pH 8].
The peptides were then captured from the reaction mixture by transfer to a Reacti-Bind Streptavidin High Binding Capacity Coated Plates (HBC) (Pierce Biotechnology) as follows. The HBC plates were pre-rinsed three times with PBS/Tween PBS/Tween20 0.05% (PBS/Tween). Part of all of the reaction mixture was then transferred wells of a HBC plate pre-filled with 90 μl of phosphate-buffered saline (PBS); typically each aliquots of each phosphorylation reaction were transferred to duplicate HBC plates to assure accuracy by additional replication
For kinase assays done at the standard peptide concentration of 10 μM, the peptide concentration in the reaction mixture becomes 5 μM after addition of the stop solution; consequently 10 μl of the reaction (50 pMoles of peptide) was transferred to the HBC plate. More generally, the amount of reaction mixture transferred was estimated to be about 50 pMoles of peptide. […] The HBC plates were incubated for 0.5 to 1.5 hr at room temperature for complete binding of biotinylated peptides to plate-bound streptavidin. The HBC plates were then washed extensively with PBS/Tween. Five washes were done routinely and additional wash steps were added if the wash solution removed from the plate had measurable radioactivity as detected using a Geiger counter. This step is essential to obtaining a good the signal to noise ratio because the fraction of radioactivity incorporated in the peptides was a tiny fraction of the total in the reaction mixture. The wells were air-dried. A volume of 40-50 μl of microScint-20 (Packard Instruments) was added to each well. The plates were covered with stick-on film sheet. Radioactive emissions were measured in a TopCount NXT Microplate Scintillation and Luminescence Counter (Packard Instruments). Typically samples were counted for 5 minutes (or more) to improve the signal to noise ratio when counts were low. […]

| Substance | phosphorylation by PKC epsilon | PKC-epsilon phosphorylation |
| --- | --- | --- |
| 159 (LYARLARAYRRSQRASFKRA) [compound 159] | 25 |  |
| 128 (QQVDRERPHVRRRRGTFKRS) [compound 128] | 32 |  |
| 101 (GAPPRRSSIRNAH) [compound 101] |  | 19% |
| 121 (LRRRSLRRSNSISKSPGP) [compound 121] | 49 |  |
| 122 (RAITSTLASSFKRRR) [compound 122] | 72 |  |
| 105 (ALRRPSLRREADD) [compound 105] |  | 29% |
| 104 (EKIKRSSLKKVDSLKK) [compound 104] |  | 17% |
| 110 (EGGDRRASGRRK) [compound 110] |  | 4% |
| 86 (RQRKRKLSFRRRTDKD) [compound 86] |  | 63% |
